Reference: the DeepSol protein solubility set

assay: soluble on expression in E. coli; label from the status in PepcDB or PDB records

Row | Sequence | soluble on expression in E. coli
1 | MFQMRLNLVIELRDAPGQLVSVLEPLGSTGVNIVTVIHERDREYGPVVPVQLTVEGDRETLDAAIGRLQEQGVNIIEMDGAPLREKFTTILIGDIAEGDLQETVEAVNSVQGASVLDLSLRMSEGRSAARITFEAEHGSRDEVLRRINEAAMERNLLLVSEV | not soluble
2 | MYKILEKKEIAMRNTWYKVYAPHVAKKVQPGQFVIVRAFPNGERIPLTPVMWDREEGWIVLIVFTRGKTTMRMAVELKEGDSLLNVAGPLGTPVPMEKFGKILAIGAYTGIVEVYPIAKAWQEIGNDVTTLHVTFEPMVILKEELEKAVTRHIVEPVPLNPNQDFLANMKNVSQRLKEKVRELLESEDWDLVFMVGPVGDQKQVFEVVKEYGVPMKVDLHPIMVDGTGMCGACRVTVGGEVKFACVDGPEFDAYQVDWDELIHRVGFYAKLEKLALEKYMEELKAKGVILEHHHHHH | not soluble
3 | DYNGQAKCMLEKVGNWNFDIFLFDRLTNGNSLVSLTFHLFSLHGLIEYFHLDMMKLRRFLVMIQEDYHSQNPYHNAVHAADVTQAMHCYLKEPKLANSVTPWDILLSLIAAATHDLDHPGVNQPFLIKTNHYLATLYKNTSVLENHHWRSAVGLLRESGLFSHLPLESRQQMETQIGALILATDISRQNEYLSLFRSHLDRGDLCLEDTRHRHLVLQMALKCADICNPCRTWELSKQWSEKVTEEFFHQGDIEKKYHLGVSPLCDRHTESIANIQIGFMTYLVEPLFTEWARFSNTRLSQTMLGHVGLNKASWKGLQR | soluble
4 | MSLSVLKICTKDQKGLIYRISDVIFKYHINIVKNDEFVGEGMFFFRALLEGEFDKEAFIGTLEAMLGQEALIELCEKRKKDIVVFATKESHCLGDLLIKHYSNELEANIKAVISNHNSLKDLVEKFEIPYHFISAENLDRKEQENQILKCLEQYKFDYLVLAKYMRILSPDFVRHFEGKIINIHHSFLPAFIGANPYKQAFERGVKIIGATAHFVNNNLDEGPIITQAVSPVNHEFTWQDMQQAGRNIEKDVLSKALDLAFEDRIFIHNNKTIIFEGHHHHHH | soluble
5 | MGSDKIHHHHHHMDIGDKGEMLSLLKALVNIDSGSYYKEGVDRVGRMLTNAFKQIGFKVAIFKQERYGDHLLFTHPHAFDPKILLVAHMDTVFPVGTAAARPFQLIGTRAYGPGVIDMKGSLVACLYAIKALVGAQSPAVKQVAVLMTSDEEIGAPSGREIIEKIGVGKKAVLVMEPARKDGSLVTARRGGGRYTLNVTGRAAHSGVEPEKGRSAIEELAHKIMKLHALSDYKSGISVNVGVIEGGTAVNTVADRAKAKVDIRISRLEQAEPLDRDIRRICGTPDVDGTTIELKGGITRPPMERNAQTVALFQLIQQVASTIGLELTETATGGSSDASFTSALGIPTIDGMGPVGGFPHSEKEYLRVDTMQERTLLLAKVIERLSE | not soluble
6 | VLLLDVTPLSLGIETLGGVFTRLIPRNTTIPTKKSQIFSTAAAGQTSVEIRVFQGERELVRDNKLIGNFTLAGIPPAPKGVPQIEVTFDIDADGIINVSARDKATNKDSSITVAGSSGLSENEIEQMVNDAEKFKSQDEARKQAIETANKADQLANDTENSLKEFEGKVDKAEAQKVRDQITSLKELVARVQGGEEVNAEELKTKTEELQTSSMKLFEQLYKNDSNNNNNNNGNNAESGETKQ | soluble
7 | MAGEAGQPSEPLNLLAGMAAAPWDYDFFQALRRIECESPQLPRLGHSVRLADDPLRLGQKPDCTFAPSTLASVSQAGTAAVPRLDQFFFGLTGPNGPLPLHLTEYARERQRNVNDATFKRFMDVFHHRLLTLFYRAWAEARPEISHDRIDDDYWSARLAALSGRGMPSLRGREPLADTARYYYTGHLAAQTRYPDGLRVILAEYFEVPVAVEEYVGQWLELPERSRLGVDSTSLGMDVCLGTHVWDRQHKFRLRLGPLDLDQYQRFLPDGDHFVELAAWVAEYLGEELDWDVNLVLQRHEVPPLGLQGGGRLGFNTWLGDPGQDARDLLLARQYATARPHEHKEKEHE | not soluble
8 | MGSDKIHHHHHHMIRNCFLCAAKTDNVFSSTWMLPGLAPTEIGFSICPKCGSVCQSPSVSYDDMMTIYSSIAVYTNPGRQGLPSSAKIRDLDEQIQFIKRGIGHLPKSAMQIGSSDGYTLSRFRQAGVELVMGVEPGSTSIEIAKRLYNIDCIHGTAEDFETDKDFELILLTHVLEHIYEPQVTLDKCRKIQNTPGEKFIYVEVPLMATAASLCPGFLTFEHVNYYTKENLICSLTQAGYWPVSVVEHFNSNLSPIIGILASTREQHHYDVMKMDVQLNRKRLSEYRQKELSYWQNCVDCIKVSLQQSQRIFLWGAGIHTCQLLANTDLLDHSRIFGLTDTSSLKWGLRQGEWICQDPQQIDWQVGDTVLISSYASEKEIFDALYWLRDKGVNTLRLHNVDDTRAIV | not soluble
9 | MEDLYPSRQNNQPKILKRKDPVIYTDRSKDNQAPITKEQLDSYEKNGFLQIKNFFSEDEVIDMQKAIFELQDSIKDVASDKVIREPESNDIRSIFHVHQDDNYFQDVANDKRILDIVRHLLGSDVYVHQSRINYKPGFKGKEFDWHSDFETWHVEDGMPRMRAISVSIALSDNYSFNGPLMLIPGSHNYFVSCVGETPDNNYKESLKKQKLGVPDEESLRELTRIGGGISVPTGKAGSVTLFESNTMHGSTSNITPYPRNNLFMVYNSVKNRLVEPFSGGEKRPEYIAVREKQPVYSAVNSAWSHPQFEK | soluble
10 | MKDLVDTTEMYLRTIYELEEEGVTPLRARIAERLEQSGPTVSQTVARMERDGLVVVASDRSLQMTPTGRTLATAVMRKHRLAERLLTDIIGLDINKVHDEASRWEHVMSDEVERRLVKVLKDVSRSPFGNPIPGLDELGVGNSDAAAPGTRVIDAATSMPRKVRIVQINEIFQVETDQFTQLLDADIRVGSEVEIVDRDGHITLSHNGKDVELLDDLAHTIRIEEL | soluble
11 | MGSDKIHHHHHHMPVDWPLRFPQLSGGASRPHSSLASTCVGGLQELMQSCYPPRGGCWIAAVLEDAGVERVCGLLGKGHAGVVLLVEWRGVAAALKVRRRDSRRGSLEPEARVAEKAALAGAAPEVYGYGEEFIAMAPALGPSLQDLAEEGLLTPQHILASIEAAWALDNAGILHGELHRPWRNVLFNPRKALIIDYDSASSGCGNVVKLVSGISRRVPSLLGLVRSERFRDLAKRYYREGCGKATYMEMLDEVKKHISVI | not soluble
12 | GPGSMSDWETIAKESEKVLVKPDIKGCHEILMKAYEGGNHHPEILWRLGRSYYEMANESTDPAVREPYLKEGMELCKKSVEADPHNFASHKWLGILISDQKVGNKEKIANAYIIRDHFLKAVELNPNDATSLHCMGNWCFKILQIGWLERKAAALILGEPPSSTYEECLGYLLRSAEAGNTIHNSTMIGDVYAQQSMHDEARKWYQKAIDMPAYTELQKRNHDAAVAKIKKL | soluble
13 | RPLTGLVMTGGGARAAYQVGALSAIMAILDPKARPGYPNPFPIICGTSAGAVNAAALACRADRPHLAVRRMRRLWASLETGMVYRADAPGLIRTGVRWLGLLSLGWMYAGLTRKRPQSLLDSSPLADLLGRVMDFDRMRHNLARGKLSALAITASGYTSGEHLTFYQSDRPIDPWHRFLRRAVPSAIGIDHIMASSAIPFVFPARPVRVHGQVEWCGDGSMRQLAPISPAIHLGATRVLVIGTGFHDDTHPEKREEDPPYPSLAQVGGHALSSIFLDGLSMDVERLERTNFLLSRGGQEAEPEFALRRVDVLALTPSQSLDQLALEHLDDMPSEARTLFRV | not soluble
14 | MGSDKIHHHHHHMNKPLDKQLAELDIFSLLLFRAIFETGHANIAARQLDVSAPKVSRALASLRLIFADELFYRRQQGFRPTPLAEQIYPAIRELTDSINLLGMQLKDHQAFHRQECQVFDLAVSSGILTTLALEFNRREGLCPSVVLHHWQENTADRIHAGELDLGLALAPEPHTELSYERLCDAPGLCLVGAANHPIWQYTDICLEHICEYPFLCMNYPGFNDKVDPLELFCHREGLIPPTVLRVTDKEEWFGHLLCQHSLAFASPLEWGLLNALPGVEIKHLPAKEISRLHSGSAVPGLYLIEKPAHHRRYSPDDREKLLHIISLTLGLVTEDHPVNFSI | not soluble
15 | MAHHHHHHMGAVDYEVNETHLTGAQALSDYLLDTWYVHDMPRYGAVSCIDRNVTALLRFADEWRGTNVNVFLYNSSSHHQAGLSLATYYDLFIKSFLGRDSAFMRYEAELFNEPASQSQLGFIFIGAPGGRSAGGLPGRAVGRHGPCGAARGVDCDPARRRALLRCADDAPPGGGGGACEHCGDHGARVRAVCRRQGTPEEQVRQRLRGERAAGVGAARGALCVVHAGGVPRRCAERRRGSAVRVPAAARSRLR | not soluble
16 | QKEQHSQLNQTKIAYEQRLLNDLEDMDDPLDLFLDYMIWISTSYIEVDSESGQEVLRSTMERCLIYIQDMETYRNDPRFLKIWIWYINLFLSNNFHESENTFKYMFNKGIGTKLSLFYEEFSKLLENAQFFLEAKVLLELGAENNCRPYNRLLRSLSNYEDRLREMNIVENQNSVPDSRERLKGRLIYRTAPFFIRKFLTSS | soluble
17 | MGSDKIHHHHHHMKQNVLLQSILIQLNLLKENYSEDTIKNLMDIPKQLTSNTSYKRNVKEVSHVHIAFDDSTAGCLKHMLGQEERLEEMVVAFSEFFSIGPINKLHMNEGQLARKEWLVNNLTSYDCYFEEEYLPRFKETLEVLHSIPNETPITIWKADNAHEHVGLCFVMAQLKDKKNIRVMNTSEASKEILKLEYVIRGTGELPPENLALIQKSFVKLPYLTVENRMQFEHEWDSLSKSTEFLRIWTDNAVRSVQENYFDQFIIECAKSIGADQEFRKAPRVIGEALGLVEQSVGDTFLEYRLKELIKQEVFEFEGSLDEMRFYSVKLRK | not soluble
18 | MNNKLVRSLKYNDVYGELYSYENSSALTVIFPGINYGHEKPLLYYARKAAAQNNIDILCINYKNKISWEDIGKQSIEDVAIEIKGIIKNVIEKKYDNIYFLGKSVGTEIAGCTSSKLNIDNIKFLYLTPIEETLKYIVDRKCIVVSGTKDEFFKSECINKIRENKNVKLMLFEGANHSLEIKDDIIRSLRILDNVAQLYLDFFK | not soluble
19 | GAMGSMERASLIQKAKLAEQAERYEDMAAFMKGAVEKGEELSCEERNLLSVAYKNVVGGQRAAWRVLSSIEQKSNEEGSEEKGPEVREYREKVETELQGVCDTVLGLLDSHLIKEAGDAESRVFYLKMKGDYYRYLAEVATGDDKKRIIDSARSAYQEAMDISKKEMPPTNPIRLGLALNFSVFHYEIANSPEEAISLAKTTFDEAMADLHTLSEDSYKDSTLIMQLLRDNLTLWTADNAGEEGGEAPQEPQS | soluble
20 | MGSDKIHHHHHHMFMVKITILSPEGRSCSVWSLKNEIEKLGAKCDIFLLSSPENLMSHDFKLETDLIHSRCGIGDYFDRLTLYSWQFINALEVEGCRFINPIKTLYLTSDKFKCIKLLAKNKIKTPKTALIRDYEDAVKFIEKYNLRFPVVIKNSFSKCGLKVFMARNYDELKQLTKNAIWEGKLIQEFIDFKENDLYRDMRILVVDGEVVGGYRRVSRDFRTNLYLGNVVEKLNIDEELEELALKCADLSEAVILGVDILPTKDNYYVIELNSSPGTKGFRDIGINADKKIAEALVRYAKS | not soluble
